Data as given in US20090208416A1.

Assays:
[1] = target: NKG2A on baboon NK cells (baboon); assay: FACS baboon whole blood NK cells, animal V999
[2] = target: NKG2A on rhesus monkey (Macaca mulatta) NK cells (rhesus monkey (Macaca mulatta)) (UniProt Q9MZJ3); assay: FACS rhesus whole blood, animal R00037
[3] = target: NKG2A on cynomolgus monkey NK cells (cynomolgus monkey) (UniProt Q68VD2); assay: FACS cynomolgus whole blood, animal 1221
[4] = target: NKG2A on baboon NK cells (baboon); assay: FACS baboon whole blood NK cells, animal V918C
[5] = target: NKG2A on cynomolgus monkey NK cells (cynomolgus monkey) (UniProt Q68VD2); assay: FACS cynomolgus whole blood, animal T270
[6] = target: NKG2A on rhesus monkey (Macaca mulatta) NK cells (rhesus monkey (Macaca mulatta)) (UniProt Q9MZJ3); assay: FACS rhesus whole blood NK cells, animal CH256
[7] = target: NKG2A on rhesus monkey (Macaca mulatta) NK cells (rhesus monkey (Macaca mulatta)) (UniProt Q9MZJ3); assay: FACS rhesus whole blood, animal R00093
[8] = target: NKG2A on cynomolgus monkey NK cells (cynomolgus monkey) (UniProt Q68VD2); assay: FACS cynomolgus whole blood, animal T788
[9] = target: NKG2A on rhesus monkey (Macaca mulatta) NK cells (rhesus monkey (Macaca mulatta)) (UniProt Q9MZJ3); assay: FACS rhesus whole blood, animal R00013
[10] = target: NKG2A on rhesus monkey (Macaca mulatta) NK cells (rhesus monkey (Macaca mulatta)) (UniProt Q9MZJ3); assay: FACS rhesus whole blood, animal R99273
[11] = target: NKG2A on cynomolgus monkey NK cells (cynomolgus monkey) (UniProt Q68VD2); assay: FACS cynomolgus whole blood, mean of 10 animals
[12] = target: NKG2A on baboon NK cells (baboon); assay: FACS baboon whole blood NK cells, animal V9926
[13] = target: NKG2A on baboon NK cells (baboon); assay: FACS baboon whole blood NK cells, animal V997
[14] = target: NKG2A on cynomolgus monkey NK cells (cynomolgus monkey) (UniProt Q68VD2); assay: FACS cynomolgus whole blood, animal AL303
[15] = target: NKG2A on rhesus monkey (Macaca mulatta) NK cells (rhesus monkey (Macaca mulatta)) (UniProt Q9MZJ3); assay: FACS rhesus whole blood NK cells, animal PM021
[16] = target: NKG2A on rhesus monkey (Macaca mulatta) NK cells (rhesus monkey (Macaca mulatta)) (UniProt Q9MZJ3); assay: FACS rhesus whole blood NK cells, animal P9215
[17] = target: NKG2A on rhesus monkey (Macaca mulatta) NK cells (rhesus monkey (Macaca mulatta)) (UniProt Q9MZJ3); assay: FACS rhesus whole blood, animal R00085
[18] = target: NKG2A on cynomolgus monkey NK cells (cynomolgus monkey) (UniProt Q68VD2); assay: FACS cynomolgus whole blood, animal M859
[19] = target: NKG2A on cynomolgus monkey NK cells (cynomolgus monkey) (UniProt Q68VD2); assay: FACS cynomolgus whole blood, animal R390
[20] = target: NKG2A on rhesus monkey (Macaca mulatta) NK cells (rhesus monkey (Macaca mulatta)) (UniProt Q9MZJ3); assay: FACS rhesus whole blood, animal R00055
[21] = target: NKG2A on rhesus monkey (Macaca mulatta) NK cells (rhesus monkey (Macaca mulatta)) (UniProt Q9MZJ3); assay: FACS rhesus whole blood, animal R00073 (5.6 kg)
[22] = target: NKG2A on baboon NK cells (baboon); assay: FACS baboon whole blood NK cells, animal V857C
[23] = target: NKG2A on baboon NK cells (baboon); assay: FACS baboon whole blood NK cells, animal PA983
[24] = target: NKG2A on rhesus monkey (Macaca mulatta) NK cells (rhesus monkey (Macaca mulatta)) (UniProt Q9MZJ3); assay: FACS rhesus whole blood NK cells, animal N0404
[25] = target: NKG2A on baboon NK cells (baboon); assay: FACS baboon whole blood NK cells, animal V861B
[26] = target: NKG2A on rhesus monkey (Macaca mulatta) NK cells (rhesus monkey (Macaca mulatta)) (UniProt Q9MZJ3); assay: FACS rhesus whole blood, animal O967
[27] = target: NKG2A on baboon NK cells (baboon); assay: FACS baboon whole blood NK cells, animal V992
[28] = target: NKG2A on rhesus monkey (Macaca mulatta) NK cells (rhesus monkey (Macaca mulatta)) (UniProt Q9MZJ3); assay: FACS rhesus whole blood, animal R00073 (6.1 kg)
[29] = target: NKG2A on baboon NK cells (baboon); assay: FACS baboon whole blood NK cells, animal V9914
[30] = target: NKG2A on cynomolgus monkey NK cells (cynomolgus monkey) (UniProt Q68VD2); assay: FACS cynomolgus whole blood, animal AL389
[31] = target: NKG2A on rhesus monkey (Macaca mulatta) NK cells (rhesus monkey (Macaca mulatta)) (UniProt Q9MZJ3); assay: FACS rhesus whole blood, animal R00061
[32] = target: NKG2A on rhesus monkey (Macaca mulatta) NK cells (rhesus monkey (Macaca mulatta)) (UniProt Q9MZJ3); assay: FACS rhesus whole blood, animal R00007
[33] = target: NKG2A on baboon NK cells (baboon); assay: FACS baboon whole blood NK cells, animal O22V

UniProt Q9MZJ3, sequence (Q9MZJ3 whole entry): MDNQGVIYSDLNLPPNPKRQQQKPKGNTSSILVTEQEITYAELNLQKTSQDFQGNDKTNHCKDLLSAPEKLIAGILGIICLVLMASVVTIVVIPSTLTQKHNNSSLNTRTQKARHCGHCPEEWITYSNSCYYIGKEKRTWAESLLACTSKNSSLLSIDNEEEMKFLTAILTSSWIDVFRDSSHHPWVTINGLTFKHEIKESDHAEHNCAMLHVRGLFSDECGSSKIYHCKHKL
UniProt Q68VD2, sequence (Q68VD2 entry or part of it): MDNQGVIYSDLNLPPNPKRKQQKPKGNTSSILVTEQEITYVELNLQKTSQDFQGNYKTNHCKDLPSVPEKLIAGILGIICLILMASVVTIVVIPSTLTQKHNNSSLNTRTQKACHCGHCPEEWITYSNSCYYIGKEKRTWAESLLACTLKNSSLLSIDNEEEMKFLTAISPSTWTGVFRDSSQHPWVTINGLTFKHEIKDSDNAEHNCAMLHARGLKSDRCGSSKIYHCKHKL

% [1]: 0.3%
tot. MFI [1]: 0.2
% NK+ [2]: 0.6%
MFI [2]: 0.5
% NK+ [3]: 0.6%
MFI [3]: 0.53
% [4]: 0.3%
tot. MFI [4]: 1.1
% NK+ [5]: 0.2%
MFI [5]: 0.54
% [6]: 0.8%
% NK+ [7]: 1%
MFI [7]: 0.68
% NK+ [8]: 0.3%
MFI [8]: 0.5
% NK+ [9]: 0.3%
MFI [9]: 0.66
% NK+ [10]: 0.5%
MFI [10]: 0.54
% NK+ (Mean) [11]: 0.3%
MFI (Mean) [11]: 0.6
% [12]: 0.5%
tot. MFI [12]: 0.2
% [13]: 0.7%
tot. MFI [13]: 0.2
% NK+ [14]: 0.13%
MFI [14]: 0.63
% [15]: 0.8%
% [16]: 1.4%
% NK+ [17]: 0.9%
MFI [17]: 0.7
% NK+ [18]: 0.2%
MFI [18]: 0.51
% NK+ [19]: 0.2%
MFI [19]: 0.39
% NK+ [20]: 0.6%
MFI [20]: 0.7
% NK+ [21]: 0.5%
MFI [21]: 0.4
% [22]: 0.8%
tot. MFI [22]: 1.4
% [23]: 0.1%
tot. MFI [23]: 0.7
% [24]: 0.6%
% [25]: 0.2%
tot. MFI [25]: 0.6
% NK+ [26]: 0.5%
MFI [26]: 0.67
% [27]: 0.6%
tot. MFI [27]: 0.3
% NK+ [28]: 0.7%
MFI [28]: 0.59
% [29]: 0.1%
tot. MFI [29]: 0.3
% NK+ [30]: 0.3%
MFI [30]: 0.63
% NK+ [31]: 0.5%
MFI [31]: 0.5
% NK+ [32]: 1.5%
MFI [32]: 0.52
% [33]: 0.5%
tot. MFI [33]: 0.2
Substance: mouse IgG1 isotype control (antibody)
